Test results: the supplement of paper PMC10567573

B1: C19orf51 (parent)
chain: FAPQTGARPSETFARFCKSQESAL
B2: ZNF207 (parent)
chain: FPSAGQAQAAVQGPVGTDFKPLNS

Variants of: B1
Assay: protein stability index of a GFP-peptide fusion (GPS, HEK-293T) (PSI 1-6); higher = more stable
Details: c terminus: a fixed tail appended
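Note: lentivirally expressed fusions sorted by FACS into six bins by GFP to DsRed ratio, PSI derived from sequencing read proportions per bin multiplied by bin number.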

| Variant | protein stability index |
| --- | --- |
| FAPQTGARNSETFARFCKSQESAL [P9N] | 2.23 |
| FAPQTGARPSETFARFCKSQEDAL [S22D] | 2.04 |
| FAPQTGARPSETFARFCKSQEWAL [S22W] | 1 |
| FAPQTGARPSETFARFCKSQECAL [S22C] | 2.31 |
| FAPQTGARPSETFARFCKSQELAL [S22L] | 2.08 |
| FAPQTGARPSETFARFCKSQEIAL [S22I] | 3.24 |
| FAPQTGARPSETFARFCKSQEYAL [S22Y] | 1.93 |
| FAWQTGARPSETFARFCKSQESAL [P3W] | 2.66 |
| FAIQTGARPSETFARFCKSQESAL [P3I] | 1.72 |
| FALQTGARPSETFARFCKSQESAL [P3L] | 1.5 |
| FATQTGARPSETFARFCKSQESAL [P3T] | 1.98 |
| FANQTGARPSETFARFCKSQESAL [P3N] | 1.96 |
| FACQTGARPSETFARFCKSQESAL [P3C] | 1.62 |
| FAAQTGARPSETFARFCKSQESAL [P3A] | 1.05 |
| FAFQTGARPSETFARFCKSQESAL [P3F] | 1.7 |
| FADQTGARPSETFARFCKSQESAL [P3D] | 2.79 |
| FAVQTGARPSETFARFCKSQESAL [P3V] | 1.95 |
| FASQTGARPSETFARFCKSQESAL [P3S] | 1.61 |
| FAPQTGARPSETFARFCTSQESAL [K18T] | 2.6 |
| FAPQTGARPSETFARFCSSQESAL [K18S] | 2.39 |
| FAPQTGARPSETFARFCHSQESAL [K18H] | 2.19 |

| Variant | protein stability index |
| --- | --- |
| FAPQTGARPSETFARFCESQESAL [K18E] | 1.92 |
| FAPQTGARPSETFARFCKCQESAL [S19C] | 3.45 |
| FAPQTGARPSETFARFCKTQESAL [S19T] | 1.66 |
| FAPQTGARPSETFARFCKHQESAL [S19H] | 4.27 |
| FAPQTGARPSETFARFCKNQESAL [S19N] | 1.31 |
| FAPQTGARPSETFARFCKEQESAL [S19E] | 1.1 |
| FAPQTGARPSETFARFCKGQESAL [S19G] | 2.82 |
| FAPQTGARPSETFARFCKWQESAL [S19W] | 1.75 |
| FAPQTGARPSETFARFCKRQESAL [S19R] | 5.04 |
| FAPQTGARPSETFARFCKKQESAL [S19K] | 2.35 |
| FAPQTGARPSETFARFCKQQESAL [S19Q] | 1.43 |
| FAPQTLARPSETFARFCKSQESAL [G6L] | 2.07 |
| FAPQTAARPSETFARFCKSQESAL [G6A] | 2.12 |
| FAPQTYARPSETFARFCKSQESAL [G6Y] | 1.86 |
| FAPQTCARPSETFARFCKSQESAL [G6C] | 1.06 |
| FAPQTPARPSETFARFCKSQESAL [G6P] | 1.95 |
| FAPQTWARPSETFARFCKSQESAL [G6W] | 2.83 |
| FAPQTMARPSETFARFCKSQESAL [G6M] | 2.32 |
| FAPQTTARPSETFARFCKSQESAL [G6T] | 2.51 |
| FAPQTKARPSETFARFCKSQESAL [G6K] | 2.51 |
| FAPQTSARPSETFARFCKSQESAL [G6S] | 1.9 |

| Variant | protein stability index |
| --- | --- |
| FAPQTDARPSETFARFCKSQESAL [G6D] | 2.04 |
| FAPQTGARPSETFARFCKSVESAL [Q20V] | 1.73 |
| FAPQTGARPSETFARFCKSIESAL [Q20I] | 2.92 |
| FAPQTGARPSETFARFCKSEESAL [Q20E] | 2.48 |
| FAPQTGARPSETFARFCKSGESAL [Q20G] | 1.84 |
| FAPQTGARPSETFARFCKSAESAL [Q20A] | 2.13 |
| FAPQTGARPSETFARFCKSMESAL [Q20M] | 1.72 |
| FAPQTGARPSETFARFCKSFESAL [Q20F] | 1.73 |
| FAPQTGARPSETFARFCKSLESAL [Q20L] | 1.65 |
| FAPQTGARPSETFARFCKSTESAL [Q20T] | 3.01 |
| FAPQTGARPSETFARFCKSKESAL [Q20K] | 1.99 |
| FAPQTGARPSETFARFCKSDESAL [Q20D] | 2.51 |
| FAPQTGARPSETFARFCKSQESAK [L24K] | 2.02 |
| FAPQTGARPSETFARFCKSQESAA [L24A] | 3.59 |
| FAPQTGARPSETFARFCKSQESAE [L24E] | 3.37 |
| FAPQTGARPSETFARFCKSQESAR [L24R] | 4.53 |
| FAPQTGARPSETFARFCKSQESAQ [L24Q] | 1.23 |
| FAPQTGARPSETFARFCKSQESAF [L24F] | 3.1 |
| FAPQTGARPSETFARFCKSQESAG [L24G] | 2.81 |
| FAPQTGARPSETFARFCKSQESAC [L24C] | 3.32 |
| FPPQTGARPSETFARFCKSQESAL [A2P] | 2.16 |

| Variant | protein stability index |
| --- | --- |
| FSPQTGARPSETFARFCKSQESAL [A2S] | 1.9 |
| FTPQTGARPSETFARFCKSQESAL [A2T] | 1.61 |
| FKPQTGARPSETFARFCKSQESAL [A2K] | 3.17 |
| FHPQTGARPSETFARFCKSQESAL [A2H] | 1 |
| FFPQTGARPSETFARFCKSQESAL [A2F] | 1.88 |
| FAPQTGARPSERFARFCKSQESAL [T12R] | 2.39 |
| FAPQTGARPSEFFARFCKSQESAL [T12F] | 2.96 |
| FAPQTGARPSEMFARFCKSQESAL [T12M] | 2.29 |
| FAPQTGARPSEDFARFCKSQESAL [T12D] | 1.99 |
| FAPQTGARPSELFARFCKSQESAL [T12L] | 2.87 |
| FAPQTGARPSDTFARFCKSQESAL [E11D] | 1.85 |
| FAPQTGARPSGTFARFCKSQESAL [E11G] | 1.54 |
| FAPQTGARPSKTFARFCKSQESAL [E11K] | 1.03 |
| FAPQTGARPSRTFARFCKSQESAL [E11R] | 2.15 |
| FAPQTGARPSMTFARFCKSQESAL [E11M] | 3.05 |
| FAPQTGARPSHTFARFCKSQESAL [E11H] | 2.47 |
| FAPQTGARPSCTFARFCKSQESAL [E11C] | 2.86 |
| FAPQTGARPSLTFARFCKSQESAL [E11L] | 2.27 |
| FAPQTGARPSYTFARFCKSQESAL [E11Y] | 3.29 |
| FAPQTGARPSITFARFCKSQESAL [E11I] | 1.72 |

Variants of: B2
Assay: as above
Details: c terminus: a fixed tail appended

| Variant | protein stability index |
| --- | --- |
| FPSAGQAQAAVQGPVGTDFKPLNW [S24W] | 1.89 |
| FPSAGQAQAAVQGPVGTDFKPLNR [S24R] | 3.15 |
| FPSAGQAQAAVQGPVGTDFKPLNL [S24L] | 3.12 |
| FPSAGQAQAAVQGPVGTDFKPLNV [S24V] | 3.19 |
| FPSAGQAQAAVQGPVGTDFKPLNQ [S24Q] | 3.43 |
| FPSAGQAQAAVQGPVGTDFKPLNM [S24M] | 3.08 |
| FPSAGQAQAAVQGPVGTDFKPLNP [S24P] | 3.54 |
| FPSAGQAQAAVQGPVGTDFKPLNY [S24Y] | 2.63 |
| FPSAGQAQAAVQGPVGTDFKPLNK [S24K] | 3.71 |
| FPSAGQAQAAVQGPVGTDFKPLNN [S24N] | 3.92 |
| FPSAGQAQAAVQGPVGTDFKPLNT [S24T] | 3.37 |
